Measured values taken from IntAct's records for PubMed 9341158.

Legend:
ap1m1_human AP1M1 = ap1m1_human AP1M1 (UniProt Q9BXS5)
ap2m1_rat Ap2m1 = ap2m1_rat Ap2m1 (UniProt P84092)
ap2m1_rat Ap2m1, sequence (P84092 whole entry): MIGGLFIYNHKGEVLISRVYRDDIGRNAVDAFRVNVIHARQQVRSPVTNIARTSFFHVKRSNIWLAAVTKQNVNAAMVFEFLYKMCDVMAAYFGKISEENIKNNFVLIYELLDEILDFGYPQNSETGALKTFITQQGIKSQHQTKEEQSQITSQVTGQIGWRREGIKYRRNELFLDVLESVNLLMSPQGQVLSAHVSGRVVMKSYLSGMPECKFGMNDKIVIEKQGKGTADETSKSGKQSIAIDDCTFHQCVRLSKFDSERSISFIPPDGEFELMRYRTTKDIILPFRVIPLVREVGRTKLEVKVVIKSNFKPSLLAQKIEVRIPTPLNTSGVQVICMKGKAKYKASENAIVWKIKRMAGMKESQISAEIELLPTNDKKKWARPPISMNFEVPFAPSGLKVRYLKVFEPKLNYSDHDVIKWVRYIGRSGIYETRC

Trans-Golgi network integral membrane protein TGN38 (Rattus norvegicus (Rat)), P19814 Y350A, sequence (P19814 whole entry Y350A): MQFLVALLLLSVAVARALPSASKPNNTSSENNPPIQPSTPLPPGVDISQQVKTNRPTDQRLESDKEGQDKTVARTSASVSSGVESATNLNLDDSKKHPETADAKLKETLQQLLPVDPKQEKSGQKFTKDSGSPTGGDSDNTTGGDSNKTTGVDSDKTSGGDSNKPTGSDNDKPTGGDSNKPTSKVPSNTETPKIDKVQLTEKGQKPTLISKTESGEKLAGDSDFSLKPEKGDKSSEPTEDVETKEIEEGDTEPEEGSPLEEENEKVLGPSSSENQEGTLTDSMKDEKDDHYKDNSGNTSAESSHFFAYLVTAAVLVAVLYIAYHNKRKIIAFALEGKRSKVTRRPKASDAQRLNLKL
ap1m1_human AP1M1, sequence (Q9BXS5 whole entry): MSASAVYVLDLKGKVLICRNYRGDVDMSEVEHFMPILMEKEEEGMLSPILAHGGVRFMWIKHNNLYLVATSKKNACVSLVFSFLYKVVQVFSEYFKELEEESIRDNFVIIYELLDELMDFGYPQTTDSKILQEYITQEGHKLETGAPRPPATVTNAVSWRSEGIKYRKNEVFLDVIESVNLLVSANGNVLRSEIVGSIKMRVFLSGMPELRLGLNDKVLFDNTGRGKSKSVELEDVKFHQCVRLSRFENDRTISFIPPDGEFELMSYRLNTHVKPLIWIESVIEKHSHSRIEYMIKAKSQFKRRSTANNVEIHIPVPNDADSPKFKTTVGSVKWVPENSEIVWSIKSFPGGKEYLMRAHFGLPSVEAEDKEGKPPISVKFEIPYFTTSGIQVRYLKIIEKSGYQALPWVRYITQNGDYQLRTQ

Trans-Golgi network integral membrane protein TGN38 (Rattus norvegicus (Rat)), P19814 Y350A
effect of a mutation on the interaction (ap1m1_human AP1M1): decreasing interaction
effect of a mutation on the interaction (ap2m1_rat Ap2m1): decreasing interaction
